Experimental data reported in patent US20140378537A1 (Genentech, published 2014).
Each block holds one binder with its values, some of them ahead of it.

B2: murine BATF (other, UniProt O35284 1-125, looked up)
chain: MPHSSDSSDSSFSRSPPPGKQDSSDDVRKVQRREKNRIAAQKSRQRQTQKADTLHLESEDLEKQNAALRKEIKQLTEELKYFTSVLSSHEPLCSVLASGTPSPPEVVYSAHAFHQPHISSPRFQP
notes: AP-1 family transcription factor, used as nuclear extract
B3: murine IRF-4 (other)
chain: MNLETGSRGSEFGMSAVSCGNGKLRQWLIDQIDSGKYPGLVWENEEKSVFRIPWKHAGKQDYNREEDAALFKAWALFKGKFREGIDKPDPPTWKTRLRCALNKSNDFEELVERSQLDISDPYKVYRIVPEGAKKGAKQLTLDDTQMAMGHPYPMTAPYGSLPAQQVHNYMMPPHDRSWRDYAPDQSHPEIPYQCPVTFGPRGHHWQGPSCENGCQVTGTFYACAPPESQAPGIPIEPSIRSAEALALSDCRLHICLYYRDILVKELTTTSPEGCRISHGHTYDVSNLDQVLFPYPDDNGQRKNIEKLLSHLERGLVLWMAPDGLYAKRLCQSRIYWDGPLALCSDRPNKLERDQTCKLFDTQQFLSELQVFAHHGRPAPRFQVTLCFGEEFPDPQRQRKLITAHVEPLLARQLYYFAQQNTGHFLRGYELPEHVTTPDYHRSLRHSSIQE
notes: Transcription factor; Expressed from CMV vectors encoding murine IRF-4 in 293T cells and used as nuclear extract, or endogenous in mouse Th17 nuclear extracts; also called Pip

Key:
[1] = target: T1, His-tagged IRF4 (murine, UniProt Q64287 1-450); assay: EMSA, 293T nuclear extracts, CTLA-4 and Bcl11b AICE DNA probes (DNA-dependent ternary complex)
T1 construct: not shown: His tag
T1 sequence: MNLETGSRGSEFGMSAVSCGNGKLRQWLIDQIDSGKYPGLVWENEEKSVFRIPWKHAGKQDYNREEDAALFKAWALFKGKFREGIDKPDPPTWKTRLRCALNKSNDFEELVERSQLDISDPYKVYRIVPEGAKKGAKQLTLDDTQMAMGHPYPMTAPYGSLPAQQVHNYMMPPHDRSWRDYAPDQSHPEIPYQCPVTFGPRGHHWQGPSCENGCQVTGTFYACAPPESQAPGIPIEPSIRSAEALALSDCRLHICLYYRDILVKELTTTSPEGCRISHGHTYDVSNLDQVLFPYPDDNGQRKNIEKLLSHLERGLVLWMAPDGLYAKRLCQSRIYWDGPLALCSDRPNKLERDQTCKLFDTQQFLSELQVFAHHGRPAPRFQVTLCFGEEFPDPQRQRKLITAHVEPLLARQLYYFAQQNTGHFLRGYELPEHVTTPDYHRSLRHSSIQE
Procedure: Positions of various protein/DNA complexes are indicated. Nuclear extracts were incubated with either the wild type Bcl11b or CTLA-4 probes or their indicated mutant counterparts in which either the IRF or AP-1 site or both were altered.
(§1) Nuclear extracts were prepared from 293T cells (2×107), 48 hours after their transfection or from Th17 cells (8×107), 42 hours after their activation and differentiation. Cells were incubated for 10 min in 1 ml of hypotonic buffer (10 mM Hepes pH7.6, 10 mM KCl, 0.1 mM EGTA, 1.5 mM MgCl, 1 mM DTT, 0.5 mM PMSF and the complete protease inhibitor mixture (Roche, #11697498001) and then lysed with the addition of 0.01% Triton-x-100. After centrifugation at maximum speed in an Eppendorf microfuge for 15 seconds the nuclear pellet was resuspended in 80 μl of the following buffer (420 mM NaCl, 20 mM Hepes pH7.9, 0.2 mM EDTA, 25% Glycerol, 1 mM DTT, 0.5 mM PMSF with complete protease inhibitor mixture). Nuclear proteins were extracted with intermittent vortexing and incubation for 15 minutes at […]. In-vitro binding assays were performed using reagents from the light-shift chemiluminescent EMSA kit (Thermo scientific) according to the manufacturer's protocol, with the exception of using FAMlabeled probes (Table 2, below). Protein-DNA complexes were resolved using 6%-TBE Gels (Invitrogen) at 100V and imaged with a Typhoon Trio Imager (Amersham Biosciences). […]

[2] = target: T2, murine JunB (murine, UniProt P09450 1-344); assay: EMSA supershift, Th17 nuclear extracts, IRF-site-mutated AICE probes
T2 construct: AP-1 family transcription factor, used as nuclear extract
T2 sequence (looked up): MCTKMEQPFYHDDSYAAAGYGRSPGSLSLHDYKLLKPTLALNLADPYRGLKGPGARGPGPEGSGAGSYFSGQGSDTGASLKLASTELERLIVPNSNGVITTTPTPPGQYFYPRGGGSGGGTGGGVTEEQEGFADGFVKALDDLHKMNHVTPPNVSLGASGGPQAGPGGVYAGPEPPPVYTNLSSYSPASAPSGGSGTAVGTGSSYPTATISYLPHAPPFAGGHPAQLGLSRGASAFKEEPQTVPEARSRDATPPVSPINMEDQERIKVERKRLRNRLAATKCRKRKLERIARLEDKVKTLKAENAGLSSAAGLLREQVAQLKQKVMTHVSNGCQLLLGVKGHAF

[3] = target: B3; assay: EMSA, Th17 nuclear extracts, Bcl11b and CTLA-4 probes
Procedure: as §1

[4] = target: T3, c-Jun/BATF heterodimer (murine, UniProt P05627 1-334; O35284 1-125); assay: EMSA, 293T nuclear extracts, AICE probes
T3 construct: also called BATF/cJun
T3 sequence (P05627 whole entry, one chain of several): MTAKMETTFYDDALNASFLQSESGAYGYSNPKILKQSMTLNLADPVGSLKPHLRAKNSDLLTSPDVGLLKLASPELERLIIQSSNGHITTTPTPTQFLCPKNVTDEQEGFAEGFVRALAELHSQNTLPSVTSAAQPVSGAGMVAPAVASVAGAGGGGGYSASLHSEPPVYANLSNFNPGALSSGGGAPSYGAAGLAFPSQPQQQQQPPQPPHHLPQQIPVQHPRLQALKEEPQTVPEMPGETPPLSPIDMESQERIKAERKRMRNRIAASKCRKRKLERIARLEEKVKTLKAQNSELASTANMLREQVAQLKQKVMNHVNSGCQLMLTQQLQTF
Excerpt: (§2) (a-d) EMSAs using the Bcl11b probe and 293T nuclear extracts as a source of indicated proteins (a) c-Jun, BATF, IRF-4, (b) FosL2, JunB, IRF-4, (c) JunB, BATF, IRF-8 or (d) JunB, BATF, IRF-3 (e) EMSA using an ISRE containing probe and IRF-3 or IRF-4. Complexes were supershifted with indicated antibodies. Red and green arrows mark the ternary and quaternary protein-DNA complexes, respectively as in FIG. 1d. Data are representative of at least two independent experiments. (f-h) Th0 cells and Th2 cells differentiated in vitro (42 hours) and LPS-activated dendritic cells (6 hours) were subjected to chromatin crosslinking and immunoprecipitation with antibodies directed against IRF-4. Immunoprecipitated chromatin was deep sequenced and analyzed as in FIG. 3a.
(§3) Nuclear extracts were prepared from 293T cells (2×107), 48 hours after their transfection or from Th17 cells (8×107), 42 hours after their activation and differentiation. […]

[5] = target: B2; assay: cell-based or functional assay
[6] = target: T4, JunB/FosL2 heterodimer (murine, UniProt P09450 1-344; P47930 1-326); assay: EMSA on AICE DNA probes, 293T nuclear extracts
T4 construct: also called FosL2/JunB heterodimer
T4 sequence (looked up) 1: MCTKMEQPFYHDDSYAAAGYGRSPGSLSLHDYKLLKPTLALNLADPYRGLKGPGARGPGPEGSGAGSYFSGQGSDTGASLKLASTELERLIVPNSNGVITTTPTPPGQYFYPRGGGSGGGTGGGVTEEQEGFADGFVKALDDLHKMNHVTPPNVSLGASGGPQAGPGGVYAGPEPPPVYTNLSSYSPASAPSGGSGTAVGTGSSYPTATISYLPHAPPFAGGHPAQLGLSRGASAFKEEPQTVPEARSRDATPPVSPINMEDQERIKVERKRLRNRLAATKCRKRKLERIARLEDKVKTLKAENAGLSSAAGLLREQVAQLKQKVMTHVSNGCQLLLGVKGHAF
T4 sequence (looked up) 2: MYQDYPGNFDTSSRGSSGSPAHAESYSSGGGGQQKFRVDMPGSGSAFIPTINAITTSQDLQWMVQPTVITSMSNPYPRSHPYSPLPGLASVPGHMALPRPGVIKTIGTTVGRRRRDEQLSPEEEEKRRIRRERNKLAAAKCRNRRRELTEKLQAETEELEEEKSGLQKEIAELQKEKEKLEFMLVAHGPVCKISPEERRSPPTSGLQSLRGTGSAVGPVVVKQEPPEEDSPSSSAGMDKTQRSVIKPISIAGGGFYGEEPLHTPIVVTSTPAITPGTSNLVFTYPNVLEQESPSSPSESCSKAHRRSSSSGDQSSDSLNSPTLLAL
Excerpt: as §2, §3

[7] = target: T5, BATF/JunB heterodimer (murine, UniProt O35284 1-125; P09450 1-344); assay: EMSA, 293T nuclear extracts, AICE probes
T5 construct: Formed by mixing 293T nuclear extracts, or endogenous in Th17 nuclear extracts; also called BATF/JunB complex
T5 sequence (looked up) 1: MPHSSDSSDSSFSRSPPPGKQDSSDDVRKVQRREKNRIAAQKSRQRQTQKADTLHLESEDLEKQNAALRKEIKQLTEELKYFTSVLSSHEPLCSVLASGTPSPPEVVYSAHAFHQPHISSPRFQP
T5 sequence (looked up) 2: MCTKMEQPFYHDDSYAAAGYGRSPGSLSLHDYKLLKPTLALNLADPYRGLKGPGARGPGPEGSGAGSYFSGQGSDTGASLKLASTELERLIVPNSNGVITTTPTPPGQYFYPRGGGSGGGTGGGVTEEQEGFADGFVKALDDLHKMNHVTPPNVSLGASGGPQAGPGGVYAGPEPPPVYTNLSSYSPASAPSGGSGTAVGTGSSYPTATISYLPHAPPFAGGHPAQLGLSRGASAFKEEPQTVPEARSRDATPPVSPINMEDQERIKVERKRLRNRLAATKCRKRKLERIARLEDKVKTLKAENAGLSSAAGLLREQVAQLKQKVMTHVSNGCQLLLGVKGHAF
Excerpt: as §2, §3

[8] = target: T5, BATF/JunB heterodimer; assay: EMSA on Bcl11b AICE DNA probe, 293T nuclear extracts
Excerpt: as §2, §3

B1: Flag-tagged BATF (other, murine, UniProt O35284 1-125, looked up)
chain: MPHSSDSSDSSFSRSPPPGKQDSSDDVRKVQRREKNRIAAQKSRQRQTQKADTLHLESEDLEKQNAALRKEIKQLTEELKYFTSVLSSHEPLCSVLASGTPSPPEVVYSAHAFHQPHISSPRFQP
notes: not shown: Flag tag
binding result [1]: binds

Binder: B2
binding result [2]: binds
binding result [3]: binds

Binder: B3
binding result [4]: binds
CTLA-4 levels (intracellular, flow cytometry) in T cells transduced with IRF4 and/or BATF retroviruses [5]: 3 fold
ICOS levels (surface expression, flow cytometry) in Th0 cells transduced with IRF4 and/or BATF retroviruses [5]: ~6 fold
frequency of IL-17A producing cells by intracellular flow cytometry [5]: 2 fold
binding result [6]: no binding

More lines, now with the values ahead:

binding result [7]: binds
B4: murine IRF-8 (other)
chain: MCDRNGGRRLRQWLIEQIDSSMYPGLIWENDEKTMFRIPWKHAGKQDYNQEVDASIFKAWAVFKGKFKEGDKAEPATWKTRLRCALNKSPDFEEVTDRSQLDISEPYKVYRIVPEEEQKCKLGVAPAGCMSEVPEMECGRSEIEELIKEPSVDEYMGMTKRSPSPPEACRSQILPDWWVQQPSAGLPLVTGYAAYDTHHSAFSQMVISFYYGGKLVGQATTTCLEGCRLSLSQPGLPKLYGPDGLEPVCFPTADTIPSERQRQVTRKLFGHLERGVLLHSNRKGVFVKRLCQGRVFCSGNAVVCKGRPNKLERDEVVQVFDTNQFIRELQQFYATQSRLPDSRVVLCFGEEFPDTVPLRSKLILVQVEQLYARQLVEEAGKSCGAGSLMPALEEPQPDQAFRMFPDICTSHQRPFFRENQQITV
notes: Expressed from a CMV vector encoding murine IRF-8 in 293T cells and used as nuclear extract; also called ICSBP

binding result [8]: no binding
B5: murine IRF-3 (other, UniProt P70671 1-419, looked up)
chain: METPKPRILPWLVSQLDLGQLEGVAWLDESRTRFRIPWKHGLRQDAQMADFGIFQAWAEASGAYTPGKDKPDVSTWKRNFRSALNRKEVLRLAADNSKDPYDPHKVYEFVTPGARDFVHLGASPDTNGKSSLPHSQENLPKLFDGLILGPLKDEGSSDLAIVSDPSQQLPSPNVNNFLNPAPQENPLKQLLAEEQWEFEVTAFYRGRQVFQQTLFCPGGLRLVGSTADMTLPWQPVTLPDPEGFLTDKLVKEYVGQVLKGLGNGLALWQAGQCLWAQRLGHSHAFWALGEELLPDSGRGPDGEVHKDKDGAVFDLRPFVADLIAFMEGSGHSPRYTLWFCMGEMWPQDQPWVKRLVMVKVVPTCLKELLEMAREGGASSLKTVDLHISNSQPISLTSDQYKAYLQDLVEDMDFQATGNI
notes: Used as 293T nuclear extract
